# Laboratory results as given in patent US12686712B2, “Antibody, related use, pharmaceutical composition including method for diagnosing fungal infections, fungal infection diagnosis kit and method for treating fungal infections” (priority 2020, dated 2026).
# B1: HC6/DD11: murine IgM monoclonal antibody against chitooligomers (chitotriose); VH SEQ ID NO: 15, VL SEQ ID NO: 16 (antibody, listed as Mus musculus, V domains shown)
# VH: STGQVKLEESGGGLVQPGGSRKLSCAASGFTFSDYGMAWVRQAPGKGPEWVAFISNLAYSIYYADTVTGRFTISRENAKNTLYLEMSSLRSEDTAMYYCARDYYGSSYWYFDVWGAGTTVTAPC
# VL: ATNSCISRGEVTITCSASSSVSYMHWFQQKPGTSPKLWIYSTSNLASGVPARFSGSGSGTSYSLTISRMEAEDAATYYCQQRSSYPLTFGAGTKLELKRADAAPTVSLET
# Experiments:
# [1] = test system: C. neoformans (H99); assay: Dot Blot against intact cells using PL; type: binding, Cryptococcus neoformans; details: AcM 25 μg/ml; cells in 5 μg/ml PL diluted in base 10 from 10^7 cell/ml; 3 independent experiments
# Experimental: (§1) C. neoformans (H99) and Candida albicans in 10^7 cell/ml density until 10 cells/ml were suspended in poly-L-Lysine solution (5 μg/ml in PBS) and 10 μl were loaded in nitrocellulose membranes. Then, the same steps for ELISA were followed, however, 25 μg/ml concentration of AcM anti-chitooligomers. Membrane was cut and deposited in 96-well plates, to which 50 μl TMB was added and incubated for 30 minutes at 37° C. Volume was removed and transferred to a new plate, to which stop reaction was added with HCl 1 N and read with spectrophotometer at 450 nm.
# (§2) The principle used in this trial was the same of ELISA and was based on the load presented by fungi. As nitrocellulose membrane has negative load, PL was used to check positive load to fungus, and consequently have bond to membrane.
# (§3) As provided in FIG. 11, it was initially diluted in 5 μg/ml of PL at 10^7 cell/ml concentration and diluted in base 10. In this trial, it was evidenced that AcM HC6/DD11 was capable to bond to C. albicans up to 10^4 cell/ml order, which counters C. neoformans, that was identified to 10^6 cell/ml order. 3 independent experiments were performed to each trial. Example 16.7—Immunofluorescence
# [2] = test system: C. albicans; assay: Indirect ELISA against intact cells using poly-L-Lysine (PL); type: binding, Candida albicans; details: 10^4 and 10^5 cells/ml
# Experimental: For this test, C. neoformans (H99), Candida albicans, Giardia lamblia, human lung line cell A549 (ATCC), Escherichia coli and Staphylococcus aureus. Cells were washed in PBS three times and suspended at 10^7 cell/ml density in poly-L-Lysine (5 μg/ml in PBS) for adherence at night at 4° C. The next day, plates were blocked with PBS/BSA 5% and incubated for 1 hour at 37° C., then they are incubated for 1 hour at 37° C. with anti-chitooligomer AcM at 50 μg/ml concentration and diluted at 5 μg/ml. Then, washing with PBS/Tween 0.05% was performed for 3 times and anti-IgM murine peroxidase was added diluted 1:5000 and incubated for 2 hours at 37° C. Plates were washed again and TMB was added and incubated for 30 minutes at 37° C.
# Reaction was stopped with HCl 1 N and reading with spectrophotometer at 450 nm. After this trial, seriated dilutions were performed at density of cells 10^7 until 10 cells/ml to fungi and 10^7 until 10^4 cells/ml to other cellular types and tested of AcM anti-chitooligomer at 25 μg/ml concentration, followed by the same procedures abovementioned. […]
# In this trial, 10^7 cell/ml of C. albicans were used to perform an absorbance curve, in which it was observed that there was a 25 μg/ml concentration reliable signal of both AcM, as above such value the curve starts to enter in plateau, as provided in FIG. 9. […]
# [3] = test system: acapsular mutant of C. neoformans Cap67; assay: Biofilm development, XTT reduction trial; type: cell-based, Cryptococcus neoformans; details: AcM 25 μg/ml, 48 hours at 37° C., vs fungus without treatment, p<0.05
# Experimental: (§4) C. neoformans (H99 and Cap67) and Candida albicans were cultivated in Sabouraud media for 24 hours at 30° C. Cellular suspensions were centrifuged for 5 minutes at 3000 g, washed 3 times in PBC and suspended in minimum media (20 mg/ml thiamin, 30 mm glucose, 26 mM glycine, 20 mM MgSO4, and 58.8 mM KH2PO4). Then, they were added to 96-well plates (100 μl/well—1×10^6 células/ml) and cultivated for 48 hours at 37° C. at presence of AcM (HC6/DD11 and AF1/CC5) and AcM anti-GXM 18B7 (only to H99) at 25 μg/ml concentration, keeping under agitation for 30 minutes, for AcM total homogenization with fungi. As control, drug AmB was used at 1 μg/ml concentration.
# (§5) Two analysis systems were performed: in the first, cells were washed, so that non-adhering cells were removed and only cells bonded to biofilm under development remained; in the second system, cells were not washed and all cells adhered or not to substrate were quantified.
# (§6) Viable cell metabolic activity in both trials was assessed by the method based on decrease of XTT (2-methoxy-4-nitro-5-sulfophenyl)-5-[(phenylamino) carbonyl]-2H-tetrazolium hydroxide) in spectrophotometer at 492 nm of wavelength.
# (§7) AcMs were tested (25 μg/ml) against three fungus species (C. albicans, C. neoformans—H99—and acapsular mutant of C. neoformans—Cap67), with control by AcM anti-GXM 18B7 (25 μg/ml) only to H99. In the first assay (FIGS. 14A and B), cellular suspensions were washed to remove non-adhering cells to substrate. […] In second assay (FIGS. 14C and D), cellular suspensions were not washed, and again AcM inhibited biofilm development (p<0.05) compared to cell not treated with antibodies. In both assays, cell growth was observed.
# [4] = test system: C. albicans; assay: Biofilm development, XTT reduction trial; type: cell-based, Candida albicans; details: AcM 25 μg/ml, 48 hours at 37° C., vs fungus without treatment, p<0.05
# Experimental: as §4, §5, §6, §7
# [5] = test system: C. albicans; assay: Dot Blot against intact cells using PL; type: binding, Candida albicans; details: AcM 25 μg/ml; cells in 5 μg/ml PL diluted in base 10 from 10^7 cell/ml; 3 independent experiments
# Experimental: as §1, §2, §3
# [6] = test system: Candida albicans; assay: Immunofluorescence of AcM anti-chitooligomer against intact cells; type: binding; details: AcM 25 μg/mL, 1 h at 37° C.; anti-IgM Alexa 568; calcofluor
# Experimental: Fungal cells (10^6 cells)) were fastened (cacodylate paraformolaldehyde buffer 4%; 30 min) and blocked later (PBS/BSA 1%; 1 hour). Then, they were incubated with AcM anti-chitooligomer(25 μg/mL; 1 h at 37° C.) After washing with PBS, cells were incubated with mouse anti-IgM antibody conjugated at Alexa 568 (SIGMA; 1:1000). After PBS washing, cells were incubated with 25 μM of white calcofluor (Invitrogen) and washed again. Cellular suspensions were assembled in glass blades and assessed under microscope Olympus AX70, coupled to camera system (QImaging Retiga 1300) and assessed in QCapture suite V2.46 software.
# From reliable and ELISA and Dot Blot trials, biological activity validation tests. Thus, AcMs were used through immunofluorescence (IF), using the pathogen Candida albicans as template. AcMs were efficient at fungal cellular wall labeling, showing the same profile whenever standard marker is used (lectin), data not provided.
molecule,measurement,setting,value
B1,cell density down to which fungus was identified (Dot Blot),[1],10^6 cell/ml
same,ELISA signal in cell saturation curve,[2],slightly more sensitive
same,biofilm development (XTT reduction),[3]; non-washed cells,reduced biofilm development significantly
same,biofilm development (XTT reduction),[3]; washed cells,reduced biofilm development significantly
same,biofilm development (XTT reduction),[4]; non-washed cells,reduced biofilm development significantly
same,biofilm development (XTT reduction),[4]; washed cells,reduced biofilm development significantly
same,cell density down to which AcM was capable to bond (Dot Blot),[5],10^4 cell/ml
same,fungal cellular wall labeling by immunofluorescence,[6],characteristic polar label
